Data reported in US20240025992A1 (Janssen / Centocor, published 2024).

Target: T1, DL3B574
T1 construct: also called DL3B450 scFv-Fc; not shown: wild-type IgG1 Fc domain
Experiment: SPR (ProteOn), antibody captured by anti-Fc; DLL1 at 100 nM and 1000 nM

binding result: no binding (tested: 1000 nM)
B1: DL3W33, Recombinant Human DLL1 ECD (Ser22-Gly540), -DI-C-6xHis (ligand)
chain: SGVFELKLQEFVNKKGLLGNRNCCRGGAGPPPCACRTFFRVCLKHYQASVSPEPPCTYGSAVTPVLGVDSFSLPDGGGADSAFSNPIRFPFGFTWPGTFSLIIEALHTDSPDDLATENPERLISRLATQRHLTVGEEWSQDLHSSGRTDLKYSYRFVCDEHYYGEGCSVFCRPRDDAFGHFTCGERGEKVCNPGWKGPYCTEPICLPGCDEQHGFCDKPGECKCRVGWQGRYCDECIRYPGCLHGTCQQPWQCNCQEGWGGLFCNQDLNYCTHHKPCKNGATCTNTGQGSYTCSCRPGYTGATCELGIDECDPSPCKNGGSCTDLENSYSCTCPPGFYGKICELSAMTCADGPCFNGGRCSDSPDGGYSCRCPVGYSGFNCEKKIDYCSSSPCSNGAKCVDLGDAYLCRCQAGFSGRHCDDNVDDCASSPCANGGTCRDGVNDFSCTCPPGYTGRNCSAPVSRCEHAPCHNGATCHERGHGYVCECARGYGGPNCQFLLPELPPGPAVVDLTEKLEGQGDIHHHHHH
notes: also called huDLL1; TPP000049465
